Experimental findings from US20230236188A1 are described below.

This test addresses CD40 on human B cells (human) (UniProt P25942). Nature of the test: cell-based or functional assay.
Sequence of UniProt P25942 (P25942 21-277): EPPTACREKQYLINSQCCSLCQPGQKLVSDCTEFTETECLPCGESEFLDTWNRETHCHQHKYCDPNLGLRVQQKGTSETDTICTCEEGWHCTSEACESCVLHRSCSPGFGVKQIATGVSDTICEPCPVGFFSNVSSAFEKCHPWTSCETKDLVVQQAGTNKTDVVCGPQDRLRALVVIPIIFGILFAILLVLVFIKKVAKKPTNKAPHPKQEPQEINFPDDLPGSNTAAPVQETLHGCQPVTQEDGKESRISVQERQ

On to “human CD40 ligand (CD40L), membrane form on cells (from UniProt P29965 1-261)”, for which the average CD40 internalization score after co-culture with 10% hCD40L-CHO cells is 1.69, the average CD40 internalization score on fresh B cells co-cultured 1 h with autologous CD40L-IZ-stimulated B cells that had upregulated CD40L worked out at 1.26, the percent of B cells with CD40 downregulation after 1 h co-incubation with 1% hCD40L-CHO cells was 5% and the percent of B cells with CD40 internalization after co-culture with 10% hCD40L-CHO cells turned out to be 33%. The percent of B cells with NF-kB p50 nuclear translocation after hCD40L-CHO cells (unstimulated: 29%) is 54%, the percent of fresh B cells with internalized CD40 after co-culture with autologous CD40L-IZ-stimulated B cells that had upregulated CD40L stood at 19.5%, the percent of fresh B cells with p50 nuclear translocation after co-culture with CD40L-IZ-stimulated B cells amounted to 41% and the percent of total CD40lo/- B cells after 1 h co-incubation with 10% hCD40L-CHO cells turned out to be 37%.
“human CD40L isoleucine zipper (CD40L-IZ) (from UniProt P29965 113-261) (ligand)” showed an average CD40 internalization score after 1 h stimulation (unstimulated: 0.41) of 2.09, a percent of B cells with NF-kB p50 nuclear translocation (unstimulated: 29%) of 58% and a percent of B cells with internalized CD40 (internalization score >2.5; unstimulated: 2.1%) of 42%.
